Source: patent US20240342305A1 (published 2024)

Experiments:
[1] = target: GPC3 expressed on hepatoma cells (HepG2, Huh-7, SK-Hep-1 GPC3) (human, UniProt P51654 25-554); experiment: cell-based or functional assay
[2] = target: T1, His-tagged human GPC3 recombinant protein (purchased from Shanghai Rui Jin Biotech Co., Ltd.) (human, UniProt P51654 25-559, limits assumed); experiment: flow cytometry of CAR T cells stained with His-tagged human GPC3 (50 ug/ml), anti-His-tag antibody and FITC secondary
T1 construct: Bought; construct not described; not shown: His tag
Description: Infected CTL cells were detected by flow cytometry on day 8 of culture for the expression of different chimeric antigen receptors. FACS assays were performed using His-tagged human GPC3 recombinant protein (purchased from Shanghai Rui Jin Biotech Co., Ltd.); the cells were firstly incubated with the protein (50 ug/ml) for 1 hr, washed twice with D-PBS, and Anti-His-tag antibody (1:50 dilution, purchased from Shanghai Reagent Biotechnology Co., Ltd.) was added and incubated for 1 hr and then washed twice with D-PBS and then FITC labeled goat anti-mouse secondary antibody (Shanghai Kangcheng Biotechnology Co., Ltd.), incubated for 50 min, washed with D-PBS for three times, and tested by FACS. Uninfected T lymphocytes was used as a negative control, the positive rates of virus-infected T cells expressing different chimeric antigen receptors are shown in Table 4.

[3] = target: T2, human GPC3 recombinant protein (purchased from Shanghai Rui Jin Biotechnology Co., Ltd.) (human, UniProt P51654 25-559, limits assumed); experiment: single phage ELISA, GPC3 coated 100 ng/well
T2 construct: Bought recombinant protein; also called huGPC3; antigen GPC3
Description: (§1) 96 clones were randomly selected in the clones obtained from the fourth round of screening and their binding capability to human GPC3 was analyzed by single phage ELISA (enzyme-linked immunosorbent assay). For this purpose, each single colony was inoculated in 300 μl of 2×YT/ampicillin medium (containing 2% glucose) in a 96-well deep-well plate and cultured with shaking at 37° C. and 250 rpm for 16 hours. 20 μl of culture was inoculated into 500 μl of 2×YT/ampicillin medium (containing 0.1% glucose) and shaken at 37° C. and 250 rpm for 1.5 hours. To prepare the helper phage solution, 75 μl of M13KO7 (titer of 3×10¹² pfu/ml) was taken and mixed into 15 ml of 2×YT medium and added into a culture plate at 50 μl/well, and incubated at 37° C. and 150 rpm for 30 minutes. And then prepared kanamycin solution (180 μl of 50 mg/ml kanamycin was taken and added into 15 ml of 2×YT medium) was added at 50 μl/well and incubated with shaking for 16 hours at 37° C. and 250 rpm. Finally, cells were precipitated by centrifugation (30 mins, 5000×g, 4° C.) and the supernatant was transferred to a new 96-well deep-well plate.
(§2) For single phage ELISA, 100 ng/well of antigen GPC3 and negative control protein BSA (100 μl/well) were used in a 96-well MediSorp ELISA plate (purchased from Nunc) and coated overnight at 4° C. […] Extinction values were measured at 450 nm with an enzyme-linked immunosorbent (Bio-Rad).

[4] = target: T3, BSA (bovine serum albumin), negative control protein (bovine, UniProt P02769 25-607); experiment: single phage ELISA, BSA coated 100 ng/well
T3 construct: Coated as negative control in the single phage ELISA
T3 sequence (P02769 25-607 limits assumed): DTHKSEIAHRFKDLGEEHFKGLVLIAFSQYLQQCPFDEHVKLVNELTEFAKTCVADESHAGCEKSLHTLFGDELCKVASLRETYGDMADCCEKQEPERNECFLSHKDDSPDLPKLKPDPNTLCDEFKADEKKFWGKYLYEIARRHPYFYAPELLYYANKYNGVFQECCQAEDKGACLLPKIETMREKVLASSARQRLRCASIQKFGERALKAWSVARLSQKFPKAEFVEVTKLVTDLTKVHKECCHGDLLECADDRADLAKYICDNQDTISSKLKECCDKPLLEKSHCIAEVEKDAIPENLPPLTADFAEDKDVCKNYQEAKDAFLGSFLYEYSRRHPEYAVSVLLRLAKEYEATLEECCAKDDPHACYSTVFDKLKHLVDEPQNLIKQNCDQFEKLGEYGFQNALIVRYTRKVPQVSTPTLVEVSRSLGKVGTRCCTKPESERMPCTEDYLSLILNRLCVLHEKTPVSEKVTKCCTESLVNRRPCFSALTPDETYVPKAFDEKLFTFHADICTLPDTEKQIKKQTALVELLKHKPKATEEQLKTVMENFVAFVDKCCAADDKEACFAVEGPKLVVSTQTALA
Description: as §1, §2

B1: chimeric antigen receptor P7D4-BBZ (P7D4 scFv-CD8-CD137-CD3 zeta), on T cells (other)
chain: QVQLQESGGGLVQPGRSLRLSCAASGFTFSSYAMHWVRQAPGKGLEWVSAISGSGGSTYYADSVKGRFTISRDNSKNTLYLQMNSLRAEDTAVYYCAKDRRGSHADAFDVWGQGTLVTVSSGGGGSGGGGSGGGGSQSALTQPPSASGSPGQSVTISCTGTSSDVGGYNYVSWYQQYPGKAPKLLIYGNSNRPSGVPDRFSGSKSGTSASLAITGLQAEDGADYYCQSYDSSLRVVFGGGTKVTVLGTTTPAPRPPTPAPTIASQPLSLRPEACRPAAGGAVHTRGLDFACDIYIWAPLAGTCGVLLLSLVITLYCKRGRKKLLYIFKQPFMRPVQTTQEEDGCSCRFPEEEEGGCELRVKFSRSADAPAYKQGQNQLYNELNLGRREEYDVLDKRRGRDPEMGGKPRRKNPQEGLYNELQKDKMAEAYSEIGMKGERRRGKGHDGLYQGLSTATKDTYDALHMQALPPR
notes: Second generation CAR on human T cells; also called P7D4 scFv-BBZ
Cytotoxicity (%) on HepG2 cells, effector target ratio 1:1 (LDH release, 18 h) [1]: 38.6%
Cytotoxicity (%) on HepG2 cells, effector target ratio 1:3 (LDH release, 18 h) [1]: 13.9%
Cytotoxicity (%) on HepG2 cells, effector target ratio 3:1 (LDH release, 18 h) [1]: 71.3%
Cytotoxicity (%) on HuH-7 cells, effector target ratio 1:1 (LDH release, 18 h) [1]: 32.2%
Cytotoxicity (%) on HuH-7 cells, effector target ratio 1:3 (LDH release, 18 h) [1]: 10.2%
Cytotoxicity (%) on HuH-7 cells, effector target ratio 3:1 (LDH release, 18 h) [1]: 69.2%
Positive rate of T cells transfection [2]: 53%

B2: single chain antibody P7D4 (phage-displayed scFv) (scFv)
scFv: QVQLQESGGGLVQPGRSLRLSCAASGFTFSSYAMHWVRQAPGKGLEWVSAISGSGGSTYYADSVKGRFTISRDNSKNTLYLQMNSLRAEDTAVYYCAKDRRGSHADAFDVWGQGTLVTVSSGGGGSGGGGSGGGGSQSALTQPPSASGSPGQSVTISCTGTSSDVGGYNYVSWYQQYPGKAPKLLIYGNSNRPSGVPDRFSGSKSGTSASLAITGLQAEDGADYYCQSYDSSLRVVFGGGTKVTVLG
notes: Tested as single phage (M13, phagemid pCantab 5E) culture supernatant in ELISA
binding result [3]: binds
binding result [4]: no binding

B3: chimeric antigen receptor P7D4-δZ (P7D4 scFv-CD8-CD3δzeta), on T cells (other)
chain: QVQLQESGGGLVQPGRSLRLSCAASGFTFSSYAMHWVRQAPGKGLEWVSAISGSGGSTYYADSVKGRFTISRDNSKNTLYLQMNSLRAEDTAVYYCAKDRRGSHADAFDVWGQGTLVTVSSGGGGSGGGGSGGGGSQSALTQPPSASGSPGQSVTISCTGTSSDVGGYNYVSWYQQYPGKAPKLLIYGNSNRPSGVPDRFSGSKSGTSASLAITGLQAEDGADYYCQSYDSSLRVVFGGGTKVTVLGTTTPAPRPPTPAPTIASQPLSLRPEACRPAAGGAVHTRGLDFACDIYIWAPLAGTCGVLLLSLVITRVKFSRSADAPA
notes: Chimeric antigen receptor on lentivirus-infected human T cells; negative control without ITAM; also called P7D4-8Z; P7D4 scFv-δZ
Cytotoxicity (%) on HepG2 cells, effector target ratio 1:1 (LDH release, 18 h); signalling-dead negative control CAR [1]: 2.5%
Cytotoxicity (%) on HepG2 cells, effector target ratio 1:3 (LDH release, 18 h); signalling-dead negative control CAR [1]: 3.2%
Cytotoxicity (%) on HepG2 cells, effector target ratio 3:1 (LDH release, 18 h); signalling-dead negative control CAR [1]: 4.8%
Cytotoxicity (%) on HuH-7 cells, effector target ratio 1:1 (LDH release, 18 h); signalling-dead negative control CAR [1]: 1.3%
Cytotoxicity (%) on HuH-7 cells, effector target ratio 1:3 (LDH release, 18 h); signalling-dead negative control CAR [1]: 5.3%
Cytotoxicity (%) on HuH-7 cells, effector target ratio 3:1 (LDH release, 18 h); signalling-dead negative control CAR [1]: 3.2%
Positive rate of T cells transfection [2]: 59%

B4: single chain antibody P1B12E (phage-displayed scFv) (scFv)
scFv: QVQLVESGAEVKKPGASVKVSCKASGGTFSSYAISWVRQAPGQGLEWMGGIIPIFGTANYAQKFQGRVTITADESTSTAYMELSSLRSEDTAVYYCAKSPFSGTPGEYWGRGTLVTVSSGGGGSGGGGSGGGGSEIVLTQSPGTLSLSPGERATLSCRASQSVSSNYLAWYQQKPGQAPRLLIYGASRRATGIPDRFSGSGSGTDFTLTISRVEPEDFAVYHCQQYGASPKTFGQGTKLEIKR
notes: Tested as single phage (M13, phagemid pCantab 5E) culture supernatant in ELISA; the phage coat fusion is not described
binding result [3]: binds
binding result [4]: no binding
